In patent US20080003614:

What was measured:
[1] = tested on: 35S-labeled FLAG-MAVS (in vitro translated)
[2] = tested on: 35S-labeled FLAG-MAVS-C508R (in vitro translated)

Substance | cleavage of 35S-labeled MAVS in vitro (SDS-PAGE, PhosphorImaging) [1] | cleavage of 35S-labeled MAVS in vitro (SDS-PAGE, PhosphorImaging) [2]
Flag-NS3/4A (S139A), protease-dead mutant | the wild type MAVS was cleaved by the active NS3/4A protease, but not the inactive NS3/4A mutant | –
Flag-NS3/4A (wild type hepatitis C virus NS3/4A serine protease) | the wild type MAVS was cleaved by the active NS3/4A protease | a point mutation at Cys-508 completely blocked the cleavage of MAVS by NS3/4A in vitro
